Publication PMC2708935
Values joined by “and” are separate entries in the source; they are usually repeats but may differ in a detail not shown here. Equal values may be shown once. Read-outs that look alike come from different tables or passages of the source.

How the values were obtained:
[1] = biological target: CR56, LRP fragment containing domains CR5 and CR6 (UniProt Q07954); assay: ITC
[2] = biological target: CR78, LRP fragment containing domains CR7 and CR8; assay: other fluorescence titration
[3] = biological target: CR56, LRP fragment containing domains CR5 and CR6 (UniProt Q07954); assay: other fluorescence titration
[4] = biological target: CR34, LRP fragment containing domains CR3 and CR4; assay: other fluorescence titration
[5] = biological target: CR45, LRP fragment containing domains CR4 and CR5; assay: other fluorescence titration
[6] = biological target: CR89, LRP fragment containing domains CR8 and CR9; assay: other fluorescence titration
[7] = biological target: CR567, LRP fragment containing domains CR5, CR6 and CR7; assay: other fluorescence titration
[8] = biological target: CR678, LRP fragment containing domains CR6, CR7 and CR8; assay: other fluorescence titration
[9] = biological target: CR345, LRP fragment containing domains CR3, CR4 and CR5; assay: other fluorescence titration
[10] = biological target: CR456, LRP fragment containing domains CR4, CR5 and CR6; assay: other fluorescence titration
[11] = biological target: receptor-associated protein (RAP), GST-free (UniProt P30533); assay: other fluorescence titration
[12] = biological target: receptor-associated protein (RAP), GST-free (UniProt P30533); assay: native gel or EMSA
[13] = biological target: receptor-associated protein (RAP), GST-free (UniProt P30533); assay: AUC
[14] = biological target: receptor-associated protein (RAP), GST-free (UniProt P30533); assay: SEC
[15] = biological target: receptor-associated protein (RAP), GST-free (UniProt P30533); assay: ITC
RAP domain 2 (D2) [16] = biological target: RAP domain 2 (D2) (UniProt P30533); assay: other fluorescence titration
RAP domain 1 (D1) [17] = assay: other fluorescence titration
RAP domain 3 (D3) [18] = assay: other fluorescence titration
RAP domain 2 (D2) [19] = biological target: RAP domain 2 (D2) (UniProt P30533); assay: other fluorescence titration; remark: listed apart in the source
RAP domain 1 (D1) [20] = assay: other fluorescence titration; remark: listed apart in the source
RAP domain 3 (D3) [21] = assay: other fluorescence titration; remark: listed apart in the source

Chain of CR34, LRP fragment containing domains CR3 and CR4 (Q07954 20-4544): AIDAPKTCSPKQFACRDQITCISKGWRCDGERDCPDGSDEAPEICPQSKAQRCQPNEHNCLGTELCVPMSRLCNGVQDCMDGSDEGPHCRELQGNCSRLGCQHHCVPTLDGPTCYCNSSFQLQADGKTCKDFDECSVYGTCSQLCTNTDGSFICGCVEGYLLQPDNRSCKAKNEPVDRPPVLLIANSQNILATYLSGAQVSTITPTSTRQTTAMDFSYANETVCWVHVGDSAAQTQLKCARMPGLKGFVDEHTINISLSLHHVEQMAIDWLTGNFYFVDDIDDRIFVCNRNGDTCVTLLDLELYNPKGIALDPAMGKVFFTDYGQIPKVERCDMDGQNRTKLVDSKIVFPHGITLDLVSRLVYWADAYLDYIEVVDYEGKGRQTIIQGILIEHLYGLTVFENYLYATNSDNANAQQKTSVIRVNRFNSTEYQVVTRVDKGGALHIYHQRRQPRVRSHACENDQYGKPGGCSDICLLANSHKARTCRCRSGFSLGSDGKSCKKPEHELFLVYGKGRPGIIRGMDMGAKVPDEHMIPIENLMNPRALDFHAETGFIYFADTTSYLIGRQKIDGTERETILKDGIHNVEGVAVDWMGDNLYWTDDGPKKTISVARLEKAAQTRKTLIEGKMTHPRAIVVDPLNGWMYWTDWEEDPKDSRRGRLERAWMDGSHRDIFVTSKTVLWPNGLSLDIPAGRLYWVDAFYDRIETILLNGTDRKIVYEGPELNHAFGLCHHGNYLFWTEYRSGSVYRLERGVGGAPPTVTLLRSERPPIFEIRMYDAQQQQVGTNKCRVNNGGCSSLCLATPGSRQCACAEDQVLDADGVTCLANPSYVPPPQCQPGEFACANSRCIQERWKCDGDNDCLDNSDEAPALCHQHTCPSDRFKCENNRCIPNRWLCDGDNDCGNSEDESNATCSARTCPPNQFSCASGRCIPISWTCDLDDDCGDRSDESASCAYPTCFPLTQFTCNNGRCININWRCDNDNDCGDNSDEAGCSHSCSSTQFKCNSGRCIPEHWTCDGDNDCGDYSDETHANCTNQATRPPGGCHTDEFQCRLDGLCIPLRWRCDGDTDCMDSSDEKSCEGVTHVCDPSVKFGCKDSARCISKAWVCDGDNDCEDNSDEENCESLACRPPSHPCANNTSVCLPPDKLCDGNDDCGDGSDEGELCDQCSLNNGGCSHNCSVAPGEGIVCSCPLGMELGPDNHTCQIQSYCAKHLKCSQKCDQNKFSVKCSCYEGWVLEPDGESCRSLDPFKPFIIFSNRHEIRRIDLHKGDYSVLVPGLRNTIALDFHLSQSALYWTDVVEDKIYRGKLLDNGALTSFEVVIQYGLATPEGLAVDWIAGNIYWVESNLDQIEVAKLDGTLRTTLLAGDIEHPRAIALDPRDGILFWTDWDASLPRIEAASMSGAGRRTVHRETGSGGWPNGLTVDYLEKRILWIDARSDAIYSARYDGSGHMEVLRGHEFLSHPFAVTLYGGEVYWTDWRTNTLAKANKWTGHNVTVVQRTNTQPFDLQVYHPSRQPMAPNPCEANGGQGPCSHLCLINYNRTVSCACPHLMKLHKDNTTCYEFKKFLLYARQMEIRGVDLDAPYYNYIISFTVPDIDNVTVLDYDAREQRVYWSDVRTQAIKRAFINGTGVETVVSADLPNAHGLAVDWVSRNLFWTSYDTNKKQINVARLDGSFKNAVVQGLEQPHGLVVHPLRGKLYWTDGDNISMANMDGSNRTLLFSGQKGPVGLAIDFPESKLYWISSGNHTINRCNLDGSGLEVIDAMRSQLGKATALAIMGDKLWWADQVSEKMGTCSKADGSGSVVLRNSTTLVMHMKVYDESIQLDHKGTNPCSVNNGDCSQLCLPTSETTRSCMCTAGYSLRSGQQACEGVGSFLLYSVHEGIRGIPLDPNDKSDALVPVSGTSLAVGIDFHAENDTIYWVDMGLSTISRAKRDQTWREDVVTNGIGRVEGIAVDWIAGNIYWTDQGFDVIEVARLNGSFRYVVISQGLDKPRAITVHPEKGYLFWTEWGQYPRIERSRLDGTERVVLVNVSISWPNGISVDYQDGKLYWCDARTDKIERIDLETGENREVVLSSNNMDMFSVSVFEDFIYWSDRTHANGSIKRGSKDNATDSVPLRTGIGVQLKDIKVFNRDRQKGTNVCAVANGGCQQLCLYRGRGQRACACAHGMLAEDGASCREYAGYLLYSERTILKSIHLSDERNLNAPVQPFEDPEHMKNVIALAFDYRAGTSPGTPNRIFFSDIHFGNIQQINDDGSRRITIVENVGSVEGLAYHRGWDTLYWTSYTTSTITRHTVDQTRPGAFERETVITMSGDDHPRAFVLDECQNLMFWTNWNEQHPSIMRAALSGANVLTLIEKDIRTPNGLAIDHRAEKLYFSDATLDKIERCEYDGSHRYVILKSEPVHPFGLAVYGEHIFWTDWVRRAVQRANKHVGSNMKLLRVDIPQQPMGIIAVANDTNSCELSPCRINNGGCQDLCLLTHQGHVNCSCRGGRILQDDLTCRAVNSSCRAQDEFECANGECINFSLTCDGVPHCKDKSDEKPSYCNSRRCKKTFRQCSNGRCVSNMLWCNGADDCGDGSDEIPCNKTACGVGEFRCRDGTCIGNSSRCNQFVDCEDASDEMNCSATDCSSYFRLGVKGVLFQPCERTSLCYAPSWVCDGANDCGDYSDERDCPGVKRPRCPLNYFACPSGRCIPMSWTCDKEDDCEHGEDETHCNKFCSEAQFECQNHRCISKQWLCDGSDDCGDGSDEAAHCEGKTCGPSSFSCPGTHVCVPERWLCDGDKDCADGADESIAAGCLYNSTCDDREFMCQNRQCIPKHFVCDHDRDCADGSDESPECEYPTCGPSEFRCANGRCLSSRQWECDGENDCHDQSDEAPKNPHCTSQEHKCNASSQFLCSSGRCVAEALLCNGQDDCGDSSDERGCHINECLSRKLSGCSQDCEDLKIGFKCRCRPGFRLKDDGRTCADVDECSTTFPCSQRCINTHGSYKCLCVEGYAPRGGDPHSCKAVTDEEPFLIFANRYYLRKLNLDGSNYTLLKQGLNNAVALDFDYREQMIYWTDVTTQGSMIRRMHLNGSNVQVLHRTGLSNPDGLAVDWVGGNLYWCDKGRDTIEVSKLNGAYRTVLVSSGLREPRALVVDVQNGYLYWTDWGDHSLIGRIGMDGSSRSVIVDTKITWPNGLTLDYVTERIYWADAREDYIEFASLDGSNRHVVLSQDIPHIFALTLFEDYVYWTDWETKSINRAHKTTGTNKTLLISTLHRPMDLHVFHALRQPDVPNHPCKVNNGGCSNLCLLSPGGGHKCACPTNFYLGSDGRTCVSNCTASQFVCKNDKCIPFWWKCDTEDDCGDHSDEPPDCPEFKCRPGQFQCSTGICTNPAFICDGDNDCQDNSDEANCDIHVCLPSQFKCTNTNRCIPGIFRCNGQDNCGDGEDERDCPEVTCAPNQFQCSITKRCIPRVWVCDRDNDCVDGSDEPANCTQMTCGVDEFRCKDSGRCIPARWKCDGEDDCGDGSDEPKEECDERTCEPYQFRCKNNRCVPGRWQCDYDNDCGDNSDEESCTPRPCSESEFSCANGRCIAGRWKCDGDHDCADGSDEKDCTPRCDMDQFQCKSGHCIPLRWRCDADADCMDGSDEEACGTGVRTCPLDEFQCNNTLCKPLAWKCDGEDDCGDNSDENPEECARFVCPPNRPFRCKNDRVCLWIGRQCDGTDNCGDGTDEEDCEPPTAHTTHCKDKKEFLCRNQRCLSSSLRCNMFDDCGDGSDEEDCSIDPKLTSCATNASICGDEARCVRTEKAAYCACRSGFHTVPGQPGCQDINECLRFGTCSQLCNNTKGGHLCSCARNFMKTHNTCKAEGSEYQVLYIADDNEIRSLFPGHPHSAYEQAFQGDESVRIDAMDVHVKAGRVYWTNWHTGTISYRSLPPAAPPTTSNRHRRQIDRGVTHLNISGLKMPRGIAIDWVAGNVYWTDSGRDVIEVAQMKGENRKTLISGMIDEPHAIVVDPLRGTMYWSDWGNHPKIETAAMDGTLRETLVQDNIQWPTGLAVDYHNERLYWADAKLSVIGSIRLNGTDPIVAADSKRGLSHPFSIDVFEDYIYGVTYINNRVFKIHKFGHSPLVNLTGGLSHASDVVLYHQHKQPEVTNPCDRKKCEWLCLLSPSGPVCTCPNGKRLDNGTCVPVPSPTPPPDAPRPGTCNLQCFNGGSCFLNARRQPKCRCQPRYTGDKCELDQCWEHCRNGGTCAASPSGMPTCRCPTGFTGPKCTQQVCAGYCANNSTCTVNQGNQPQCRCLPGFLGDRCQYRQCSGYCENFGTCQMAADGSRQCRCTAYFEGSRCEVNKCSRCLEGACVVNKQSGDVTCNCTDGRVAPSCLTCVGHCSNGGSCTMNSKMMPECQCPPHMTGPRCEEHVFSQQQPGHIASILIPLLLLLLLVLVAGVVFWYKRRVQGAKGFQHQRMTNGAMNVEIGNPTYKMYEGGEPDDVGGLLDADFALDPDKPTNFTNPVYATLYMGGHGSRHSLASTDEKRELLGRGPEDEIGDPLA
Chain of CR456, LRP fragment containing domains CR4, CR5 and CR6 (domain or fragment) (Q07954 20-4544): as above
Chain of CR89, LRP fragment containing domains CR8 and CR9 (Q07954 20-4544): as above
Chain of CR45, LRP fragment containing domains CR4 and CR5 (Q07954 20-4544): as above
Chain of CR567, LRP fragment containing domains CR5, CR6 and CR7 (Q07954 20-4544): as above
Chain of CR345, LRP fragment containing domains CR3, CR4 and CR5 (domain or fragment) (Q07954 20-4544): as above
Chain of CR78, LRP fragment containing domains CR7 and CR8 (Q07954 20-4544): as above
Chain of CR678, LRP fragment containing domains CR6, CR7 and CR8 (Q07954 20-4544): as above
Chain of CR56, LRP fragment containing domains CR5 and CR6 (from UniProt Q07954 932-1013) (domain or fragment) (Q07954 932-1013): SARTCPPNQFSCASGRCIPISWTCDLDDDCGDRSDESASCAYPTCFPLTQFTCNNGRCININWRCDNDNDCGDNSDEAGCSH
Chain of CR56, LRP fragment containing domains CR5 and CR6 (UniProt Q07954) (Q07954 932-1013): as above
Chain of CR345, LRP fragment containing domains CR3, CR4 and CR5 (Q07954 20-4544): as the sequence (Q07954 20-4544) above
Chain of CR456, LRP fragment containing domains CR4, CR5 and CR6 (Q07954 20-4544): as above

Row | Substance | Kd [1] [nM] | dH [1] [kcal/mol] | Kd [2] [nM] | Kd [3] [nM] | Kd [4] [nM] | Kd [5] [nM] | Kd [6] [nM] | Kd [7] [nM] | Kd [8] [nM] | Kd [9] [nM] | Kd1 (site 1, fixed in the fit) [11] [nM] | Kd2 (site 2) [11] [nM] | stoichiometry N (equivalents of CR per RAP) [12] | further results
1 | CR456, LRP fragment containing domains CR4, CR5 and CR6 (domain or fragment) | – | – | – | – | – | – | – | – | – | – | 10 | 36 | 2 | –
2 | CR345, LRP fragment containing domains CR3, CR4 and CR5 (domain or fragment) | – | – | – | – | – | – | – | – | – | – | 20 | 42 | 2 | stoichiometry N (CR345 per RAP) [13]: 2 and 2.3; stoichiometry N (CR345 per RAP) [14]: 1.8
3 | CR56, LRP fragment containing domains CR5 and CR6 (from UniProt Q07954 932-1013) (domain or fragment) | – | – | – | – | – | – | – | – | – | – | 20 | 56 | 2 | dH (overall, two equivalents of CR56) [15]: -39.2 kcal/mol; stoichiometry N [15]: 2 CR56 per RAP; Kd (RAP domain 2 (D2) [16]): 22 nM; Kd (RAP domain 1 (D1) [17]): 29 nM; Kd (RAP domain 3 (D3) [18]): 7 nM; stoichiometry N [13]: 2 CR56 per RAP and 2.6 CR56 per RAP; stoichiometry N [14]: 2.1 CR56 per RAP; Kd (RAP domain 2 (D2) [19]): 46 nM; Kd (RAP domain 1 (D1) [20]): 26 nM; Kd (RAP domain 3 (D3) [21]): 41 nM

Further lines, with some results ahead:

Row | Kd [1] [nM] | dH [1] [kcal/mol] | Kd [2] [nM] | Kd [3] [nM] | Kd [4] [nM] | Kd [5] [nM] | Kd [6] [nM] | Kd [7] [nM] | Kd [8] [nM] | Kd [9] [nM] | Substance | Kd1 (site 1, fixed in the fit) [11] [nM] | Kd2 (site 2) [11] [nM] | stoichiometry N (equivalents of CR per RAP) [12] | further results
4 | 62 | -18.4 | 927 | 20 | 38 | 24 | 35 | 15 | 859 | 23 | RAP domain 1 (D1) (domain or fragment) | – | – | – | –
5 | 77 | -17.1 | 55 | 37 | 3.5 | 17 | 20 | 5.3 | 26 | – | RAP domain 3 (D3) (domain or fragment) | – | – | – | Kd [10]: 8 nM
6 | 270 | -8.8 | 116 | 54 | 19 | 30 | 42 | 18 | 44 | 23 | RAP domain 2 (D2) (from UniProt P30533 35-357) (domain or fragment) | – | – | – | –
